Residue numbers refer to the chain shown, from its start.
What was measured:
[1] = biological target: T1, RNase H1 CAT R179A (human, UniProt O60930 81-286, R179A); experiment: NanoBRET
T1 sequence: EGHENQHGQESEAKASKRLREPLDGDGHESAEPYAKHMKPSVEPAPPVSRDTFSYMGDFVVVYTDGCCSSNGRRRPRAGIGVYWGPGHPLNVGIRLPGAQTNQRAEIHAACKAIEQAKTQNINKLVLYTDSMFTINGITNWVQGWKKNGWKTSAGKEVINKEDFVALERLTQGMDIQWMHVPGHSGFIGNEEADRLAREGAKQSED

[2] = biological target: T2, RNase H1 CAT N151A (human, UniProt O60930 81-286, N151A); experiment: NanoBRET
T2 sequence: T1 sequence with N71A, A99R

[3] = biological target: T3, RNase H1 HBD K59A,K60A (human, UniProt O60930 1-80, K59A;K60A); experiment: NanoBRET
T3 sequence: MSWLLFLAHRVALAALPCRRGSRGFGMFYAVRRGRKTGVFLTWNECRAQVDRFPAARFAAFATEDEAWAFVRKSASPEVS

[4] = biological target: T4, NLuc-P54nrb full length (human, UniProt Q15233 1-471); experiment: competition
T4 sequence: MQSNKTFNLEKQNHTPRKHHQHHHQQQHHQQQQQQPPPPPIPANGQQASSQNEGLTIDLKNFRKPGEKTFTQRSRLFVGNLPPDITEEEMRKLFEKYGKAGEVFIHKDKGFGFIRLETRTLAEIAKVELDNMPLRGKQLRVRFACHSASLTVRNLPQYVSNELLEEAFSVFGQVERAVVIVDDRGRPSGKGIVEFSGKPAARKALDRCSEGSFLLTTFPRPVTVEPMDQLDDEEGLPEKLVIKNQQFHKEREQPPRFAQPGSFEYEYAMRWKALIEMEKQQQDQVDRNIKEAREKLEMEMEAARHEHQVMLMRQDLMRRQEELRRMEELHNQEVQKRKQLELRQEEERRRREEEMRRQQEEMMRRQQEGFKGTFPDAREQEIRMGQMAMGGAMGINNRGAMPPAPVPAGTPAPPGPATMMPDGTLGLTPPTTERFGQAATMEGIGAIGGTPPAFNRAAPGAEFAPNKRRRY

[5] = biological target: T4, NLuc-P54nrb full length; experiment: NanoBRET

B1: PO DNA/RNA heteroduplex (DNA:RNA)
DNA: CTGCTAGCCTCTGGATTTGA
RNA: UCAAAUCCAGAGGCUAGCAG
Binder B1 has a binding signal [1] greater than 2 fold weaker than WT CAT, a binding signal [2] greater than 7 fold weaker than WT CAT and a binding signal [3] of roughly 10 fold weaker than WT HBD.

B2: PO DNA (ssDNA)
DNA: CTGCTAGCCTCTGGATTTGA
B2: no binding [4].

B3: PO RNA (ssRNA)
RNA: CUGCUAGCCUCUGGAUUUGA
B3: no binding [4].

B4: ASO 766638 (2'-F gapmer) (XNA)
DNA: CTGCTAGCCTCTGGATTTGA
modifications: full PS; 5-10-5 gapmer, 2'-F wings, DNA gap
B4 was tested, and the Kd [5] was roughly 3 nM.

— publication PMC6846478
